Data reported in WO2017179718A1 (dated 2017).

Target: T1, human CD64 (human, UniProt P12314 16-374)
T1 construct: also called hCD64; FcγRIA
Assay: flow cytometry on CHO-S-hCD64 and THP-1 cells

T1 sequence (P12314 16-374 limits assumed): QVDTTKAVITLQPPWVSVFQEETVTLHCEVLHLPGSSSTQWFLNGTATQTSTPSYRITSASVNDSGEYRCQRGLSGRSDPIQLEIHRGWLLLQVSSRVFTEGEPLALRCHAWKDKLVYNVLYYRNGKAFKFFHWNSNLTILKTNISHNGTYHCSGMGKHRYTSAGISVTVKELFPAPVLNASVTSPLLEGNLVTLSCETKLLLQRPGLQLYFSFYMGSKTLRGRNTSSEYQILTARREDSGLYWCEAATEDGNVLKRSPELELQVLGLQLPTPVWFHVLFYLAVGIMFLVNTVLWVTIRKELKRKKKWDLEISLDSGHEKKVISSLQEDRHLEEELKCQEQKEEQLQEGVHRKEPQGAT

binding result: binds
B1: m22-AF647 antibody (antibody, human IgG4, V domains shown)
VH: QVQLVESGGGVVQPGRSLRLSCSSSGFIFSDNYMYWVRQAPGKGLEWVATISDGGSYTYYPDSVKGRFTISRDNSKNTLFLQMDSLRPEDTGVYFCARGYYRYEGAMDYWGQGTPVTVSS
VL: DIQLTQSPSSLSASVGDRVTITCKSSQSVLYSSNQKNYLAWYQQKPGKAPKLLIYWASTRESGVPSRFSGSGSGTDFTFTISSLQPEDIATYYCHQYLSSWTFGQGTKLEIK
modifications: Alexa Fluor 647 label on the antibody (sites not given)
notes: kappa) fluorescently labelled with Alexa Fluor 647
